Source: patent publication US20260152567A1 (CSPC MEGALITH BIOPHARMACEUTICAL, published 2026)

What was measured:
[1] = target: T1, human CD73 on the cell surface (MDA-MB-231 and SKOV3 tumor cells) (human, UniProt P21589 27-549); assay: cell-based or functional assay
T1 sequence (looked up): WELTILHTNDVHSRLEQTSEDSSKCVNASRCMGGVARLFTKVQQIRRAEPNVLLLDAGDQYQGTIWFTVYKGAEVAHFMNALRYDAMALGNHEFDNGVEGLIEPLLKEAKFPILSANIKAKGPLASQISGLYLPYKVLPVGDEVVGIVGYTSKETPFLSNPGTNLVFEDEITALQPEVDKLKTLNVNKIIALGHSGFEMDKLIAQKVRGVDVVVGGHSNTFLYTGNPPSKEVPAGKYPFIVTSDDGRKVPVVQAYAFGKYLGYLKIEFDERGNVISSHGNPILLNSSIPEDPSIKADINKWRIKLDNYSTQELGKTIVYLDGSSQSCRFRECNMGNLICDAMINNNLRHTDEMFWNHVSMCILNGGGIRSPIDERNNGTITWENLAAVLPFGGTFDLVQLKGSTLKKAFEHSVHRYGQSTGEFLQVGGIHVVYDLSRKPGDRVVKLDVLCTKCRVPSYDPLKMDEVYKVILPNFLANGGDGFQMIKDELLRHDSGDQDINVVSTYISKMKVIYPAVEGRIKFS

[2] = target: T1, human CD73 on the cell surface …; assay: flow cytometry on MDA-MB-231 cells
Protocol: In this example, the exemplary antibodies of the present application were compared with anti-CD73 antibodies described in other patent applications. Antibodies MEDI9447 and Hu101-28 (with CDR sequences from PCT patent applications WO 2016/075099 and WO 2018/137598, respectively) were cloned into eukaryotic expression vectors containing the hIgG1-kappa constant region. The binding ability of the humanized antibodies Hab7C3C2.5 and Hab1F2F9.15 to cell surface CD73 was assessed using tumor cell lines MDA-MB-231 and SKOV3 which endogenously express human CD73 on the cell surface. The cells were seeded in a 96-well plate at a density of 2×10⁶ cells/mL, with 100 μL per well. 4-fold gradient dilutions (0-100 nM) of the antibodies were added, and the mixture was incubated at 4° C. for 1 h. A goat anti-human secondary antibody was added, and the mixture was incubated at 4° C. in the dark for 50 min for labeling. The fluorescence intensity of the cells was then measured by a flow cytometer.

[3] = target: T2, recombinant human CD73 protein (human, UniProt P21589 27-547); assay: BLI (Fortebio), human CD73 on HIS1K biosensors, antibody as analyte
T2 construct: Bought soluble protein; The background says that CD73 forms a homodimer; also called soluble CD73; free CD73 protein
T2 sequence (looked up): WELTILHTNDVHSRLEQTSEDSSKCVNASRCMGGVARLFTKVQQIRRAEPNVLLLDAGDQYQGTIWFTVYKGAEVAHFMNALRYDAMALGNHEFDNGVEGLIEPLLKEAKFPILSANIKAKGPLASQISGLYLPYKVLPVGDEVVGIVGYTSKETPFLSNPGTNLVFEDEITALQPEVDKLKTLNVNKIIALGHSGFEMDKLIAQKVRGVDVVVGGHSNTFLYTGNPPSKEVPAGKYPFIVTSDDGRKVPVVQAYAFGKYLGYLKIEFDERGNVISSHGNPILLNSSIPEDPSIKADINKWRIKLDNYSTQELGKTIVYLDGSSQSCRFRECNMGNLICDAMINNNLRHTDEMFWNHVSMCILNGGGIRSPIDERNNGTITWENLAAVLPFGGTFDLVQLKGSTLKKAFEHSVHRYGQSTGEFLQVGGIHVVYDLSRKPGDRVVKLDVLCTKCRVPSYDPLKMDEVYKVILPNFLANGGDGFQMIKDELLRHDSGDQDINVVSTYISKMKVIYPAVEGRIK
Protocol: The humanized antibody VH and VL were separately constructed into eukaryotic expression vectors containing the hIgG1-kappa constant region with L234A, L235A, P329A and P331S mutations (abbreviated as hIgG1 in the present application). The affinity of all humanized antibodies was assayed in this example. Human CD73 protein was immobilized onto HIS1K biosensors to achieve a binding response threshold of 0.3 nm. After a 120-second baseline step, the sensors were separately immersed in anti-CD73 antibody analytes diluted in a gradient with a 0.02% PBST buffer (each antibody was diluted in a 2-fold gradient with an initial concentration of 25 nM, resulting in 7 concentration gradients). The times for the ligand-analyte binding and dissociation were 120 s and 300 s, respectively. The data of the antigen-antibody affinity were calculated by regression according to the binding curves using an analysis software.

B1: Hab1F2F9.15 (antibody, human IgG1, kappa, L234A L235A, V domains shown)
VH: QVQLVQSGAEVKKPGASVKVSCKASGYTFTSYWMHWVRQAPGQRLEWMGNINPSNGGTKYSQKFQGRVTITVDTSASTAYMELSSLRSEDTAVYYCARRDYGSPSYWGQGTTVTVSS
VL: DIQMTQSPSSLSASVGDRVTITCKASQDINSYLTWFQQKPGKAPKSLIYRTNILLDGVPSRFSGSGSGTDYTLTISSLQPEDFATYYCLQYHEFPVTFGGGTKLEIKR
notes: Humanized 1F2F9; also called Huab1F2F9.15; HuablF2F9.15
Cellular enzymatic activity inhibition IC50 [1]: 0.069 nM | EC50 [2]: 0.48 nM | Kd [3]: 0.779 nM | koff [3]: 0.0016 s⁻¹ | kon [3]: 2.06e+06 M⁻¹ s⁻¹

B2: Hab7C3C2.5 (antibody, human IgG1, kappa, L234A L235A, V domains shown)
VH: QVQLVQSGAEVKKPGASVKVSCKASGYTFTSYDINWVRQATGQGLEWIGWIYPRDGFTKYNEKFKGRVTLTVNTSISTAYMELSSLRSEDTAVYYCARKEGYRGDWYFDVWGQGTTVTVSS
VL: DIQMTQSPSSLSASVGDRVTITCRASGNVHNYLAWYQQKPGKAPKLLLYNAKTLASGVPSRFSGSGSGTDYTLTISSLQPEDFATYYCQHFWSTPWTFGGGTELEIKR
notes: Humanized 7C3C2; also called Hab7C3C.5
Cellular enzymatic activity inhibition IC50 [1]: 0.027 nM | EC50 [2]: 0.41 nM | Kd [3]: 0.765 nM | koff [3]: 0.00272 s⁻¹ | kon [3]: 3.56e+06 M⁻¹ s⁻¹
